In article PMC13678254, “Exploring the bistable equilibrium of methylated CpG DNA recognition by the MBD2 protein” one finds Kd data, which are given here for one molecule.

For this series, the target named is MBD2 MBD S189A (Homo sapiens, UniProt Q9UBB5 150-214, S189A). Kind of series: fluorescence polarization; 3 mM Mg2+; 10 nM DNA; FP: 10 mM HEPES pH 7.5, 50 mM NaCl, 3 mM MgCl2, 0.1 mM EDTA, 1 mM DTT, 0.02% sodium azide; 10 nM 3'FAM DNA; temperature not stated. Conditions: protein: recombinant; tags: thioredoxin/His tag (modified pET32a) removed by TEV protease; label: 3'FAM on forward strand; blunt. (Fluorescence polarisation rises when a labelled molecule tumbles more slowly, as on binding a larger partner.)
Sequence of MBD2 MBD S189A (Q9UBB5 150-214 S189A): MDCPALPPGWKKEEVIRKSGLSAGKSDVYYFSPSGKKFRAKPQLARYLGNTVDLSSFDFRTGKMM

B1: 17-bp symmetrically methylated mCpG DNA, 3'FAM (dsDNA)
DNA 1: GAGGCGCTCGGCGGCAG
DNA 2: CTGCCGCCGAGCGCCTC
modifications: 5-methylcytosine at position 9 of strand 1 and at position 8 of strand 2 (symmetric mCpG)
B1: the dissociation constant (Kd) was determined as 11.5 ± 0.6 µM.

For orientation: Kd means a measure of binding affinity in units of concentration.
